Source: PMC6981324

Experiments:
Assay in all cases: ITC
[1] = molecular target: double mutant HasR (Arg297Ala/Asn800Ala), DM-HasR (Serratia marcescens)
[2] = molecular target: single mutant HasR (Ile671Gly), Ile671Gly-HasR (Serratia marcescens)
[3] = molecular target: wild-type HasR (WT-HasR) (Serratia marcescens)

Binder	Ka [1] [M⁻¹]	dH [1] [kcal/M]	stoichiometry N [1]	Ka [2] [M⁻¹]	dH [2] [kcal/M]	stoichiometry N [2]	Ka [3] [M⁻¹]	dH [3] [kcal/M]	stoichiometry N [3]
heme-free HasA (apoHasA) (natural protein) MAFSVNYDSSFGGYSIHDYLGQWASTFGDVNHTNGNVTDANSGGFYGGSLSGSQYAISSTANQVTAFVAGGNLTYTLFNEPAHTLYGQLDSLSFGDGLSGGDTSPYSIQVPDVSFGGLNLSSLQAQGHDGVVHQVVYGLMSGDTGALETALNGILDDYGLSVNSTFDQVAAATAVGVQHADSPELLAA	1.53e+07	-26	1.05	1.8e+07	-54	1.06	1.7e+08	-43	0.92
heme-loaded HasA (holoHasA) (natural protein) MAFSVNYDSSFGGYSIHDYLGQWASTFGDVNHTNGNVTDANSGGFYGGSLSGSQYAISSTANQVTAFVAGGNLTYTLFNEPAHTLYGQLDSLSFGDGLSGGDTSPYSIQVPDVSFGGLNLSSLQAQGHDGVVHQVVYGLMSGDTGALETALNGILDDYGLSVNSTFDQVAAATAVGVQHADSPELLAA	2.4e+06	-15	1.02	9.4e+07	-46	0.99	1.1e+06	-21	1.11
